Values belong to the binder of their own block, whether it stands above or below them.
Assays:
XC252 = biological target: T1, XC252; assay: FACS on cells expressing the CXCR5 construct
T1 construct: whole, on cells; also called hCXCR5-mL2

XC256 = biological target: T2, XC256; assay: FACS on cells expressing the CXCR5 construct
T2 construct: whole, on cells; also called hCXCR5-mN-mL2

XC254 = biological target: T3, XC254; assay: FACS on cells expressing the CXCR5 construct
T3 construct: whole, on cells; also called hCXCR5-mL2-mL3

XC255 = biological target: T4, XC255; assay: FACS on cells expressing the CXCR5 construct
T4 construct: whole, on cells; also called hCXCR5-mN-mL3

XC253 = biological target: T5, XC253; assay: FACS on cells expressing the CXCR5 construct
T5 construct: whole, on cells; also called hCXCR5-mN

human CXCR5 [1] = biological target: T6, human CXCR5 (human, UniProt P32302 1-372); assay: FACS on cells expressing the CXCR5 construct
T6 construct: also called hCXCR5; C-X-C chemokine receptor type 5
T6 sequence: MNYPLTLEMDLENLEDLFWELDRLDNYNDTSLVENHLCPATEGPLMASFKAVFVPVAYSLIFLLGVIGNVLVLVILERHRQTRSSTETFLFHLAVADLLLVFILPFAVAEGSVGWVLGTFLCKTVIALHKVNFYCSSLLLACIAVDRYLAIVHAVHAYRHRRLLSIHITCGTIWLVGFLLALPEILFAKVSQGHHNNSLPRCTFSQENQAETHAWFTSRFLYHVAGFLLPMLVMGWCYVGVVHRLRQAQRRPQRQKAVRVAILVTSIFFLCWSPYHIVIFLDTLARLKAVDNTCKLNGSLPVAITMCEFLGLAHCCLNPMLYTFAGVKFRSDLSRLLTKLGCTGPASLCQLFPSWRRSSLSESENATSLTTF

mouse CXCR5 [2] = biological target: T7, mouse CXCR5 (mouse, UniProt Q04683 1-374); assay: FACS on cells expressing the CXCR5 construct
T7 construct: also called mCXCR5
T7 sequence: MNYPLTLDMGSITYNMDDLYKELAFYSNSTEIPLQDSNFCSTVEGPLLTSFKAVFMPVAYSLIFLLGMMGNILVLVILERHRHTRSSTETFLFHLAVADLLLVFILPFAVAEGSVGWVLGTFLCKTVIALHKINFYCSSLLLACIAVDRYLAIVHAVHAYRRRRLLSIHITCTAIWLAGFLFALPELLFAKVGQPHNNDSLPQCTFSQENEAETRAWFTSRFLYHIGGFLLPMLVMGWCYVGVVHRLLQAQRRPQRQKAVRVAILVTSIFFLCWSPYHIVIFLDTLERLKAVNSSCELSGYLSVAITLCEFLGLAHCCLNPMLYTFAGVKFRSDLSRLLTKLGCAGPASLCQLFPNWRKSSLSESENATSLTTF

XC251 = biological target: T8, XC251; assay: FACS on cells expressing the CXCR5 construct
T8 construct: whole, on cells; also called hCXCR5-mL3

human CXCR5 [3] = biological target: T6, human CXCR5; assay: cell-based or functional assay
human CXCR5 [4] = biological target: T6, human CXCR5; assay: cell-based or functional assay; remark: listed apart in the source
XC280 = biological target: T9, XC280 (human, UniProt P32302 2-372); assay: flow cytometry on HEK-293T cells transiently expressing the FLAG-tagged mutein; ratio of gMFI of the antibody to gMFI of anti-FLAG PE
T9 construct: also called hCXCR5 W19K
T9 sequence: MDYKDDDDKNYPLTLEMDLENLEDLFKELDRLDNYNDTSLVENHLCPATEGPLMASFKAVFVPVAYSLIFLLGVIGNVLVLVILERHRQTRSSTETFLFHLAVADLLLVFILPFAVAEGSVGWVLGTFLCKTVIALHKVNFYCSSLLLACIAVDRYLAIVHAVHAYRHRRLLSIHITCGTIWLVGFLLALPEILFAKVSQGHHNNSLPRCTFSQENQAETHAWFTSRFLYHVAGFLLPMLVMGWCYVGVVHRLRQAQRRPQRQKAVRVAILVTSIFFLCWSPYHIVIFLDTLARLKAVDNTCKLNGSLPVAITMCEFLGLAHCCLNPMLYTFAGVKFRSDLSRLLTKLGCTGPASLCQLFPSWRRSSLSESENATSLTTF
Description: The cells were analyzed by flow cytometry using an Accuri (BD Biosciences Franklin Lakes, N.J.). The geometric mean fluorescence intensity (gMFI) was determined and the ratio for the gMFI of each CXCR5 antibody and anti-flag was calculated.

human CXCR5 [5] = biological target: T6, human CXCR5; assay: flow cytometry on Raji cells, gMFI titration
Description: The apparent affinity of antibody binding to Raji cells was calculated as the EC₅₀ of equilibrium binding titration curves in which the geometric mean fluorescence intensity (gMFI) of the antigen binding population was quantified by flow cytometry and the results are shown in Table 2.

mouse CXCR5 [6] = biological target: T7, mouse CXCR5; assay: flow cytometry on cells expressing mouse CXCR5
human CXCR5 [7] = biological target: T6, human CXCR5; assay: cell-based or functional assay; remark: listed apart in the source
human CXCR5 [8] = biological target: T6, human CXCR5; assay: flow cytometry, human PBMC B cells
Description: (§1) The apparent affinity for cell surface CXCR5 of chimeric and humanized CXCR5 fucosylated and afucosylated antibodies was assessed. More specifically, to determine the apparent affinity of chimeric and humanized CXCR5 antibodies to CXCR5-expressing cells, cell binding experiments were performed on human and cynomolgus monkey peripheral blood mononuclear cells (PBMCs) and human tonsillar mononuclear cells (TMCs). The apparent affinity of CXCR5 mab binding to CXCR5+ cells (B cells, bona fide Tfh cells, and circulating Tfh-like cells) was calculated as the EC50 of equilibrium binding titration curves in which the geometric mean fluorescence intensity (gMFI) of the antigen binding population was quantified by flow cytometry.
(§2) Following isolation, PBMCs were plated at a density of 1.0×10⁵ cells per well and CD4+ TMCs were plated at a density of 2.0×10⁵ cells per well in isolation buffer (PBS containing 1% FBS and 1 mM EDTA) in 96 well U-bottom plates. The plates were then centrifuged at 1500 rpm for 5 minutes at room temperature. PBMCs and CD4+ TMCs were resuspended in Fluorescence-activated cell sorting (FACS) buffer (PBS containing 1% FBS) containing human crystallized fragment Fc block (2 μL per well; Biolegend) and 4-fold serial dilutions of the antibodies (11-point dilution series, beginning at 5000 ng/mL for PBMCs and 312.5 ng/mL for CD4+ TMCs) and incubated on ice for 2 hours. PBMCs and CD4+ TMCs were then washed with FACS buffer 3 times and resuspended in 50-100 μL of FACs buffer containing fluorescent-conjugated antibodies for staining lymphocyte subsets and a fluorescent-conjugated secondary antibody against human Ig to detect CXCR5 monoclonal antibodies (mAbs). After incubation for 30 minutes at 4° C., PBMCs and CD4+ TMCs were washed with FACS buffer 2 times and resuspended in 125 μL of 0.5% paraformaldehyde (PFA) in PBS. Plates were stored at 4° C. until analysis by flow cytometry (BD LSRFortessa™ Cell Analyzer, BD Biosciences, Franklin Lakes, N.J.).
(§3) The cell binding titration curves were generated by plotting the gMFI of the antigen binding population against the log of CXCR5 antibody concentration. EC₅₀ values were determined using GraphPad Prism® (version 6.0, GraphPad Software, Inc, San Diego, Calif.) nonlinear-regression curve fits and a sigmoidal log of agonist dose-response model, according to the following equation

cynomolgus monkey CXCR5 [9] = biological target: T10, cynomolgus monkey CXCR5 (cynomolgus monkey, UniProt P32302 1-372 (human entry)); assay: flow cytometry, cynomolgus PBMC Tfh-like cells
T10 construct: also called cynoCXCR5; NHP CXCR5
T10 chain: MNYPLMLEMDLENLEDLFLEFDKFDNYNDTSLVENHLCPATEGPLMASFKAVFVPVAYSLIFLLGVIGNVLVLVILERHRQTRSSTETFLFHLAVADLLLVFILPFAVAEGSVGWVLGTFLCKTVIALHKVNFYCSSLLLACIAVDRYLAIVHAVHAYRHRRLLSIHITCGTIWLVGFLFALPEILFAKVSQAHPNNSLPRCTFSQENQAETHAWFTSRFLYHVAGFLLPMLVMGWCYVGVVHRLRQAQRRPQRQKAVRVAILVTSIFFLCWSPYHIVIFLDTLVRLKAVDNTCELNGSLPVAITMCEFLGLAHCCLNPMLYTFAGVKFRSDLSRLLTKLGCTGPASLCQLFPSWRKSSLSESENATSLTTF
Description: as §1
(§4) Following isolation, PBMCs were plated at a density of 1.0×10⁵ cells per well and CD4+ TMCs were plated at a density of 2.0×10⁵ cells per well in isolation buffer (PBS containing 1% FBS and 1 mM EDTA) in 96 well U-bottom plates. The plates were then centrifuged at 1500 rpm for 5 minutes at room temperature. PBMCs and CD4+ TMCs were resuspended in Fluorescence-activated cell sorting (FACS) buffer (PBS containing 1% FBS) containing human crystallized fragment Fc block (2 μL per well; Biolegend) and 4-fold serial dilutions of the antibodies (11-point dilution series, beginning at 5000 ng/mL for PBMCs and 312.5 ng/mL for CD4+ TMCs) and incubated on ice for 2 hours. […]

cynomolgus monkey CXCR5 [10] = biological target: T10, cynomolgus monkey CXCR5; assay: cell-based or functional assay
cynomolgus monkey CXCR5 [11] = biological target: T10, cynomolgus monkey CXCR5; assay: flow cytometry, cynomolgus PBMC B cells
Description: as §1, §2, §3

human CXCR5 [12] = biological target: T6, human CXCR5; assay: flow cytometry, human PBMC B cells; remark: listed apart in the source
human CXCR5 [13] = biological target: T6, human CXCR5; assay: flow cytometry, human PBMC Tfh-like cells
Description: as §1, §4

human CXCR5 [14] = biological target: T6, human CXCR5; assay: flow cytometry, human tonsil Tfh cells
Description: Following centrifugation, red blood cell lysis was performed on the pellet using an ammonium chloride lysis buffer. Platelets were removed using a low speed centrifugation (200×g) for 10 minutes in Phosphate-Buffered Saline (PBS)/2% FBS/2 mM Ethylenediaminetetraacetic acid (EDTA). CD4+ T cells were purified out of the TMC mixture using an EasySep™ Human CD4+ T Cell Enrichment Kit, according to the manufacturer's instructions ([…] Technologies, Vancouver, BC, Canada).
as §2, §3

human CXCR5 [15] = biological target: T6, human CXCR5; assay: flow cytometry, B cells from human PBMCs (FIG. 5); fucosylated
human CXCR5 [16] = biological target: T6, human CXCR5; assay: flow cytometry, B cells from human PBMCs (FIG. 5); comparator 11A7

GMFI (XC252): 27000 GMFI
GMFI (XC256): 1380 GMFI
GMFI (XC254): 16900 GMFI
GMFI (XC255): 1340 GMFI
GMFI (XC253): 1260 GMFI
GMFI (human CXCR5 [1]): 150000 GMFI
GMFI (mouse CXCR5 [2]): 958 GMFI
GMFI (XC251): 19900 GMFI
ADCC Activity Average EC50, Human B Cells (human CXCR5 [3]): 2.59 nM
Ca2+ flux IC50 (human CXCR5 [4]): 11.4 nM
EC50 (human CXCR5 [5]): 0.65 nM
binding result (mouse CXCR5 [6]): no binding
% Inhibition CXCL13 (human CXCR5 [7]): 102%
EC50, stimulation of CXCL13-inhibited cAMP production (human CXCR5 [7]): 1.1 nM
B1: 16D7 (reference antibody) (antibody, human IgG1, kappa, V domains shown)
VH: QVQLKESGPGLVAPSESLSITCTVSGFSLIDYGVNWIRQPPGKGLEWLGVIWGDGTTYYNPSLKSRLSISKDNSKSQVFLKVTSLTTDDTAMYYCARIVYWGQGTLVTVSA
VL: DIVMTQAAPSVAVTPGASVSISCRSSKSLLHSSGKTYLYWFLQRPGQSPQLLIYRLSSLASGVPDRFSGSGSGTAFTLRISRVEAEDVGVYYCMQHLEYPYTFGGGTKLEIKR
notes: fucosylated; also called S16D7
binding result (XC280): no binding (tested: 1 or 3 µg/ml (not on the sheet))

EC50 (human CXCR5 [8]): 0.00708 nM
EC50 (cynomolgus monkey CXCR5 [9]): 0.00565 nM
ADCC Activity Average EC50, NHP B Cells (cynomolgus monkey CXCR5 [10]): 0.0391 nM
ADCC Activity Average EC50, Human B Cells (human CXCR5 [3]): 0.254 nM
ADCC Activity Average EC50, Human Tfh Cells (human CXCR5 [3]): 0.00077 nM
ADCC Activity Average EC50, Human Tfh-like Cells (human CXCR5 [3]): 0.00798 nM
EC50 (cynomolgus monkey CXCR5 [11]): 0.00413 nM
fold greater affinity than 2C9 (human CXCR5 [12]): ≥ 10 fold
fold greater affinity than 11A7 (human CXCR5 [12]): ≥ 100 fold
fold higher affinity than 2C9 (human CXCR5 [12]): ~10 fold
fold higher affinity than 11A7 (human CXCR5 [12]): ~100 fold
EC50 (human CXCR5 [13]): 0.00592 nM
EC50 (human CXCR5 [14]): 0.00825 nM
EC50 (human CXCR5 [15]): 0.00963 nM
% Inhibition CXCL13 (human CXCR5 [7]): 121%
EC50, stimulation of CXCL13-inhibited cAMP production (human CXCR5 [7]): 0.753 nM
B2: Humanized 11G2 154/155 (antibody, human IgG1, kappa, V domains shown)
VH: EVQLVESGGGLVQPGGSLRLSCAASGFTFTDFYMSWVRQAPGKGLEWVGFIRNKANGYTTEYSASVKGRFTISRDNAKNSLYLQMNSLRAEDTAVYYCARVYGSTLHYWGQGTLVTVSS
VL: DIQMTQSPSSLSASVGDRVTITCRASESVEYHGTSLMHWYQQKPGKAPKLLIYAASNVESGVPSRFSGSGSGTDFTLTISSLQPEDFATYYCQQSRKVPWTFGQGTKVEIKR
notes: fucosylated human IgG1/kappa; also called h11G2 VL XC154/VH XC155

EC50 (human CXCR5 [8]): 0.564 nM
ADCC Activity Average EC50, Human B Cells (human CXCR5 [3]): 0.00435 nM
binding result (mouse CXCR5 [6]): no binding
% Inhibition CXCL13 (human CXCR5 [7]): 106%
EC50, stimulation of CXCL13-inhibited cAMP production (human CXCR5 [7]): 1.4 nM
EC50 (human CXCR5 [16]): 0.926 nM
B3: 11A7 (reference antibody) (antibody, human IgG1, lambda, V domains shown)
VH: EVQLVESGGGLVQPGGSLRLSCAASGFTVSSNYMSWVRQAPGKGLEWVSVIYSGGSTYYADSVKGRFTISRHNSKNTLYLQMNSLRAEDTAVYYCARGYVVWGQGTLVTVSS
VL: QPVLTQPPSVSKDLRQTATLTCTGNSNNVGNQGATWLQQHQGHPPKLLSYKNNNRPSGISERFSASRSGNTASLTITGLQPEDEADYYCSAWDSSLSAWVFGGGTQLTVLG
notes: fucosylated
binding result (XC280): no binding (tested: 1 or 3 µg/ml (not on the sheet))

Source: patent publication US20210101970A1 (Pfizer, published 2021)
